Assay results reported in the RNAGym collection of RNA variant scans (doi:10.7554/elife.90254).

B1: LINE1-full (parent)
chain: UACGUAGGUGGUUUUCCCCUGAUAGUGCUAAGGGGGCCUGGAAGUUUGGACUGGGCAGAGCUCAACACAGCGUGGCAAAGUGGCUGUGGCUAGACUGCCUCUCUGGAUUCCUCGUCACUCAGCAGGGCAUCUCUGAGAGAAAUGCC

Variants of: B1
Experiment: self-cleavage, relative activity (ratio to wild type); higher = more cleavage; in vitro, sequencing; the parent is a self-cleaving ribozyme

Row | Variant | self-cleavage
1 | U23C U45A | 1.25
2 | U23A U85A | 0.08
3 | A24G A59G | 0.21
4 | A22U A117U | 1.36
5 | U23A A79G | 1.31
6 | A24C G114A | 0.68
7 | U23C G55C | 0.06
8 | A22G C113G | 0.82
9 | A22G C113U | 0.92
10 | U23A U87A | 0.09
11 | U23C G126A | 1.18
12 | U23C C51A | 0.98
13 | U23C C51U | 0.97
14 | A22U C99U | 0.51
15 | A22G G53A | 1.09
16 | A22U U109C | 0.91
17 | A22U U109A | 1.34
18 | A24C A77G | 2.76
19 | U23C A121C | 1.9
20 | U23C A136U | 1.19
21 | A22U A57G | 0.84
22 | A22U A57U | 0.12
23 | A24G G126A | 1.09
24 | A22G G83U | 0.58

Row | Variant | self-cleavage
25 | A24G G25U | 1.14
26 | A24G U104A | 1.24
27 | A24G U104C | 2.26
28 | A24G A65C | 0.16
29 | A22U A136G | 1.13
30 | A22U A136U | 1.04
31 | U23C C120U | 0.55
32 | A22G C131U | 1.03
33 | A22G C131G | 1.8
34 | U23C A140C | 1.35
35 | U23C A140U | 1.29
36 | U23C A140G | 1.28
37 | U23C A31G | 0.85
38 | U23G U115C | 1.29
39 | U23C A129G | 0
40 | A24G U26C | 0.97
41 | A22U C118U | 1.47
42 | A22G G88A | 0.14
43 | A24G U109C | 0.76
44 | U23C A92G | 0.09
45 | A24C A138G | 0.88
46 | A24C U47C | 2.18
47 | A22G U87C | 0.28
48 | A22G U87A | 0.22

Row | Variant | self-cleavage
49 | A24G A121C | 2.3
50 | A24G A121U | 2.93
51 | A22G U81G | 1.03
52 | A22G U81C | 1.18
53 | U23C A78G | 1.25
54 | U23C U52A | 1.39
55 | A24C C51U | 1.37
56 | A24G U39A | 0.77
57 | A22G G106U | 0.73
58 | A22G C123U | 0.99
59 | A24G U112A | 1.51
60 | A24G U112C | 1.41
61 | A24G C123U | 0.71
62 | U23C U87A | 0.06
63 | U23A A121G | 1.41
64 | A24C A65U | 0
65 | U23C U73C | 1.81
66 | U23C U73A | 1.28
67 | U23A U102C | 2.11
68 | U23A U102A | 1.18
69 | U23C U62A | 0.06
70 | A22G U26A | 1.4
71 | A22G U26G | 0.75
72 | A22G U26C | 0.83

Row | Variant | self-cleavage
73 | U23C G114C | 2.07
74 | A22G G34U | 1.66
75 | A22G C101A | 1.47
76 | A24G C120U | 1.29
77 | A24G U52A | 0.79
78 | U23C U109C | 1.84
79 | U23C U109A | 1.49
80 | A22G G32A | 0.57
81 | A22G G32U | 0.6
82 | A22G G33A | 0.65
83 | A24G U100C | 1.32
84 | A22U A129U | 1.47
85 | A22G U45C | 1.33
86 | A22U G83A | 0.82
87 | A24C C99A | 0.47
88 | U23A U108G | 1.59
89 | U23A U108C | 1.45
90 | A22U U134A | 1.15
91 | U23C G58A | 0.1
92 | U23A U100C | 1.26
93 | U23A U100A | 0.86
94 | U23C G53A | 0.87
95 | A22U C38A | 0.64
96 | A24G G86A | 0.12

Row | Variant | self-cleavage
97 | U23A U52C | 0.75
98 | A24G U81A | 0.47
99 | A22G U119A | 2.19
100 | A22G U119C | 1.43
101 | A22U G144A | 1.08
102 | U23C A77U | 1.36
103 | U23C A77G | 1.24
104 | A22U A140G | 0.71
105 | A24C U109A | 2.55
106 | A24G A136G | 1.15
107 | U23C G75C | 1.23
108 | A24G G93A | 0.13
109 | U23C C113U | 0.88
110 | U23A U96C | 0.19
111 | U23A U96A | 0.08
112 | U23A U62C | 0
113 | U23A U62A | 0.05
114 | A22U G106A | 1.55
115 | U23C U81C | 1.41
116 | U23C U81A | 1.85
117 | A22U U108A | 1.08
118 | U23A A65G | 0.1
119 | U23C U96A | 0.12
120 | U23C U96C | 0.21

Row | Variant | self-cleavage
121 | A24G A92U | 1.34
122 | U23C A124C | 1.34
123 | U23C A124U | 1.22
124 | A24G A64U | 0.47
125 | A22G C128U | 1.26
126 | A24G A78U | 2.33
127 | A24G A78G | 1.19
128 | U23C A42G | 1.18
129 | U23C A42C | 0
130 | U23A A24G | 0.85
131 | U23A C120A | 0.82
132 | A24G G35A | 0.69
133 | U23A U45C | 0.71
134 | A22U A59G | 0.07
135 | A22G U115G | 1.23
136 | U23C C95U | 0.22
137 | A24C U73C | 1.84
138 | U23A C118U | 1.22
139 | A22G U47A | 1.15
140 | U23A U46C | 1.57
141 | U23A U46G | 0.35
142 | A22U U52C | 1.73
143 | A24G G122C | 1.12
144 | A24G G75A | 1.02

Row | Variant | self-cleavage
145 | A24C | 1.62
146 | A24G | 1.17
147 | U23C U115C | 1.16
148 | U23C U115A | 1.23
149 | A24G G27U | 1.17
150 | A22G C110U | 0.92
151 | A22G C145U | 0.97
152 | A24C A140G | 1.15
153 | A24G A124U | 1.54
154 | U23C C56A | 0.07
155 | A22U G49A | 1.08
156 | A22G G70A | 0.18
157 | A24G A117G | 1.78
158 | A22U A78G | 1.54
159 | A22G G125A | 1.9
160 | A22G U108C | 1.16
161 | U23C C101U | 1.31
162 | U23A U109A | 1.33
163 | U23A U109C | 1.06
164 | A24G G97A | 0.17
165 | A22U C68U | 0.13
166 | U23A A94G | 0.47
167 | U23A A43G | 1.27
